Here are results for 19 molecules from paper PMC9248843, “Structural and biophysical studies of new L-asparaginase variants: lessons from random mutagenesis of the prototypic Escherichia coli Ntn-amidohydrolase” (Acta Crystallographica. Section D, Structural Biology, 2022).

Data set [1] deals with the molecule itself. The data set can be described thus: crystal structure; hanging-drop vapor diffusion at 20°C; 20–30% PEG 4000 or PEG 6000, 0.2 M MgCl2, 100 mM Tris–HCl pH 8.5; protein 10–15 mg/ml; space group P212121.
The target of data set [2] is T1, EcAIII α subunit (∼20 kDa) (Escherichia coli, UniProt P37595 1-178).
T1 construct: EcAIII of Escherichia coli, α subunit: cut product of the precursor up to the scissile bond Gly178-Thr179; the linker is partly degraded, residues 158-178 are not visible in the structures; also called subunit α; source: E. coli BL21 Gold, purified (DEAE-Sepharose, SEC); formed by autocleavage of the precursor
T1 sequence (looked up): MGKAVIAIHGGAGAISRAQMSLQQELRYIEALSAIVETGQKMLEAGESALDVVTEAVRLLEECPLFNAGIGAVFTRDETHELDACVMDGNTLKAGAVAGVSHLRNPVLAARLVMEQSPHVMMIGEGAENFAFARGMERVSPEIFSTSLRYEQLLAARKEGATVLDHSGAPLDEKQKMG
The description is as above. The following applies: both partners purified.

Data set [3] concerns the molecule itself. The data set can be described thus: SEC; SEC profiles of Supplementary Fig. S4; before biophysical measurements proteins were run on Superdex 75 10/300 GL in 20 mM phosphate buffer pH 7.5. (SEC sorts molecules by how far they enter the pores of the column.)

Where a chain is given by its changes, count along the chain named.

B1: wild-type EcAIII, mature (αβ)2 heterotetramer (class 2 L-asparaginase of Escherichia coli) (complex)
chain 1: T1 sequence (looked up)
chain 2: TVGAVALDLDGNLAAATSTGGMTNKLPGRVGDSPLVGAGCYANNASVAVSCTGTGEVFIRALAAYDIAALMDYGGLSLAEACERVVMEKLPALGGSGGLIAIDHEGNVALPFNTEGMYRAWGYAGDTPTTGIYREKGDTVATQ
notes: EcAIII of Escherichia coli, α subunit: cut product of the precursor up to the scissile bond Gly178-Thr179; the linker is partly degraded, residues 158-178 are not visible in the structures; EcAIII of Escherichia coli, β subunit: cut product of the precursor beginning at the nucleophilic Thr179; Gene in pET-11d; no tag is mentioned; Dimer of two αβ heterodimers formed by autocleavage of the …
As to B1, the binding result in data set [1] is reported as “binds”.

B2: EcAIII variant RDM1-12, mature (processed into α/β subunits) (complex, Escherichia coli)
chain 1: T1 sequence (looked up)
chain 2: B1 chain 2 with G28C, R29T, D32A, S33A
notes: EcAIII of Escherichia coli, α subunit: cut product up to the scissile bond Gly178-Thr179; residues 158-178 not visible in the structure; EcAIII of Escherichia coli, β subunit beginning at Thr179, with the substitutions of RDM1-12; source: E. coli BL21 Gold, purified (DEAE-Sepharose, SEC); copies: 2 + 2
Regarding B2, in data set [1], the binding result is given as “binds”.

B3: EcAIII β subunit (∼15 kDa), wild type (domain or fragment, Escherichia coli, UniProt P37595 179-321, looked up)
chain: B1 chain 2
notes: EcAIII of Escherichia coli, β subunit: cut product of the precursor beginning at the nucleophilic Thr179; also called subunit β; source: E. coli BL21 Gold, purified (DEAE-Sepharose, SEC); formed by autocleavage of the precursor
Turning to B3, the binding result in data set [2] is “binds”.

B4: EcAIII variant RDM1-18, mature (processed into α/β subunits) (complex, Escherichia coli)
chain 1: T1 sequence (looked up)
chain 2: B1 chain 2 with R29V, D32P, S33W
notes: EcAIII of Escherichia coli, α subunit: cut product up to the scissile bond Gly178-Thr179; residues 158-178 not visible in the structure; source: E. coli BL21 Gold, purified (DEAE-Sepharose, SEC); copies: 2 + 2
As to B4, in data set [1], the binding result was “binds”.

B5: EcAIII variant RDM1-38, mature (processed into α/β subunits) (complex, Escherichia coli)
chain 1: T1 sequence (looked up)
chain 2: B1 chain 2 with R29C, D32S, S33V
notes: EcAIII of Escherichia coli, α subunit: cut product up to the scissile bond Gly178-Thr179; residues 158-178 not visible in the structure; EcAIII of Escherichia coli, β subunit beginning at Thr179, with the substitutions of RDM1-38; source: E. coli BL21 Gold, purified (DEAE-Sepharose, SEC); copies: 2 + 2
As for B5, the binding result in data set [1] was “binds”.

B6: EcAIII variant RDM1-37, mature (processed into α/β subunits) (complex, Escherichia coli)
chain 1: T1 sequence (looked up)
chain 2: B1 chain 2 with G28S, R29T, D32S
notes: EcAIII of Escherichia coli, α subunit: cut product up to the scissile bond Gly178-Thr179; residues 158-178 not visible in the structure; EcAIII of Escherichia coli, β subunit beginning at Thr179, with the substitutions of RDM1-37 (Ser211 kept); source: E. coli BL21 Gold, purified (DEAE-Sepharose, SEC); copies: 2 + 2
Turning to B6, the binding result in data set [1] is listed as “binds”.

B7: EcAIII variant RDM1-29, mature (processed into α/β subunits) (complex, Escherichia coli)
chain 1: T1 sequence (looked up)
chain 2: B1 chain 2 with G28C, R29S, D32L, S33V
notes: EcAIII of Escherichia coli, α subunit: cut product up to the scissile bond Gly178-Thr179; residues 158-178 not visible in the structure; EcAIII of Escherichia coli, β subunit beginning at Thr179, with the substitutions of RDM1-29; source: E. coli BL21 Gold, purified (DEAE-Sepharose, SEC); copies: 2 + 2
With B7, the binding result in data set [1] is given as “binds”.

B8: EcAIII variant RDM1-3, mature (processed into α/β subunits) (complex, Escherichia coli)
chain 1: T1 sequence (looked up)
chain 2: B1 chain 2 with G28H, R29T, D32P, S33Q
notes: EcAIII of Escherichia coli, α subunit: cut product up to the scissile bond Gly178-Thr179; residues 158-178 not visible in the structure; EcAIII of Escherichia coli, β subunit beginning at Thr179, with the substitutions of RDM1-3; source: E. coli BL21 Gold, purified (DEAE-Sepharose, SEC); copies: 2 + 2
As for B8, in data set [1], the binding result is “binds”.

B9: EcAIII variant RDM1-24, mature (processed into α/β subunits) (complex, Escherichia coli)
chain 1: T1 sequence (looked up)
chain 2: B1 chain 2 with R29A, D32S, S33T
notes: EcAIII of Escherichia coli, α subunit: cut product up to the scissile bond Gly178-Thr179; residues 158-178 not visible in the structure; EcAIII of Escherichia coli, β subunit beginning at Thr179, with the substitutions of RDM1-24; source: E. coli BL21 Gold, purified (DEAE-Sepharose, SEC); copies: 2 + 2
Consider B9, for which the binding result in data set [1] is reported as “binds”.

B10: EcAIII β subunit of variant RDM1-38 (domain or fragment, Escherichia coli, UniProt P37595 179-321, looked up)
chain: B1 chain 2 with R29C, D32S, S33V
notes: EcAIII of Escherichia coli, β subunit beginning at Thr179, with the substitutions of RDM1-38; also called RDM1-38 β subunit; source: E. coli BL21 Gold, purified (DEAE-Sepharose, SEC); formed by autocleavage of the precursor
B10: the binding result in data set [2] is given as “binds”.

B11: EcAIII β subunit of variant RDM1-37 (domain or fragment, Escherichia coli, UniProt P37595 179-321, looked up)
chain: B1 chain 2 with G28S, R29T, D32S
notes: EcAIII of Escherichia coli, β subunit beginning at Thr179, with the substitutions of RDM1-37 (Ser211 kept); also called RDM1-37 β subunit; source: E. coli BL21 Gold, purified (DEAE-Sepharose, SEC); formed by autocleavage of the precursor
In the case of B11, the binding result in data set [2] is reported as “binds”.

B12: EcAIII β subunit of variant RDM1-24 (domain or fragment, Escherichia coli, UniProt P37595 179-321, looked up)
chain: B1 chain 2 with R29A, D32S, S33T
notes: EcAIII of Escherichia coli, β subunit beginning at Thr179, with the substitutions of RDM1-24; also called RDM1-24 β subunit; source: E. coli BL21 Gold, purified (DEAE-Sepharose, SEC); formed by autocleavage of the precursor
Take B12: the binding result in data set [2] is recorded as “binds”.

B13: EcAIII β subunit of variant RDM1-12 (domain or fragment, Escherichia coli, UniProt P37595 179-321, looked up)
chain: B1 chain 2 with G28C, R29T, D32A, S33A
notes: EcAIII of Escherichia coli, β subunit beginning at Thr179, with the substitutions of RDM1-12; also called RDM1-12 β subunit; source: E. coli BL21 Gold, purified (DEAE-Sepharose, SEC); formed by autocleavage of the precursor
For B13, the binding result in data set [2] was “binds”.

B14: EcAIII β subunit of variant RDM1-18 (domain or fragment, Escherichia coli, UniProt P37595 179-321, looked up)
chain: B1 chain 2 with R29V, D32P, S33W
notes: also called RDM1-18 β subunit; source: E. coli BL21 Gold, purified (DEAE-Sepharose, SEC); formed by autocleavage of the precursor
In the case of B14, the binding result in data set [2] is listed as “binds”.

B15: EcAIII β subunit of variant RDM1-3 (domain or fragment, Escherichia coli, UniProt P37595 179-321, looked up)
chain: B1 chain 2 with G28H, R29T, D32P, S33Q
notes: EcAIII of Escherichia coli, β subunit beginning at Thr179, with the substitutions of RDM1-3; also called RDM1-3 β subunit; source: E. coli BL21 Gold, purified (DEAE-Sepharose, SEC); formed by autocleavage of the precursor
Regarding B15, the binding result in data set [2] is reported as “binds”.

B16: EcAIII β subunit of variant RDM1-29 (domain or fragment, Escherichia coli, UniProt P37595 179-321, looked up)
chain: B1 chain 2 with G28C, R29S, D32L, S33V
notes: EcAIII of Escherichia coli, β subunit beginning at Thr179, with the substitutions of RDM1-29; also called RDM1-29 β subunit; source: E. coli BL21 Gold, purified (DEAE-Sepharose, SEC); formed by autocleavage of the precursor
Turning to B16, the binding result in data set [2] is on record as “binds”.

B17: EcAIII variant RDM1-43, unprocessed immature precursor (enzyme, Escherichia coli, UniProt P37595 1-321, looked up)
chain: MGKAVIAIHGGAGAISRAQMSLQQELRYIEALSAIVETGQKMLEAGESALDVVTEAVRLLEECPLFNAGIGAVFTRDETHELDACVMDGNTLKAGAVAGVSHLRNPVLAARLVMEQSPHVMMIGEGAENFAFARGMERVSPEIFSTSLRYEQLLAARKEGATVLDHSGAPLDEKQKMGTVGAVALDLDGNLAAATSTGGMTNKLPVGVGSSPLVGAGCYANNASVAVSCTGTGEVFIRALAAYDIAALMDYGGLSLAEACERVVMEKLPALGGSGGLIAIDHEGNVALPFNTEGMYRAWGYAGDTPTTGIYREKGDTVATQ
notes: EcAIII of Escherichia coli, uncleaved immature precursor (α and β on one chain, linker intact), with the substitutions of RDM1-43 (Ser211 kept); No ability to process into α/β subunits; EcAIII gene in pET-11d; source: E. coli BL21 Gold, purified (DEAE-Sepharose, SEC)
As to B17, the binding result in data set [3] was “binds”.

B18: EcAIII variant RDM1-64, unprocessed immature precursor (enzyme, Escherichia coli, UniProt P37595 1-321, looked up)
chain: B17 chain with V206I, G207V, S210I, S211G
notes: EcAIII of Escherichia coli, uncleaved immature precursor (α and β on one chain, linker intact), with the substitutions of RDM1-64; No ability to process into α/β subunits; EcAIII gene in pET-11d; source: E. coli BL21 Gold, purified (DEAE-Sepharose, SEC)
Turning to B18, in data set [3], the binding result is recorded as “binds”.

B19: EcAIII variant RDM1-46, unprocessed immature precursor (enzyme, Escherichia coli, UniProt P37595 1-321, looked up)
chain: B17 chain with V206L, G207D, S210L
notes: EcAIII of Escherichia coli, uncleaved immature precursor (α and β on one chain, linker intact), with the substitutions of RDM1-46 (Ser211 kept); No ability to process into α/β subunits; EcAIII gene in pET-11d; source: E. coli BL21 Gold, purified (DEAE-Sepharose, SEC)
B19: the binding result in data set [3] is on record as “binds”.
